From PMC7173060 (Journal of Molecular Biology, 2004)

Molecular target: the molecule itself
Assay: cross-linking

B1: full-length rabies virus phosphoprotein (P), C-terminal His-tagged (natural protein)
chain: MSKIFVNPSAIRAGLADLEMAEETVDLINRNIEDNQAHLQGEPIEVDNLPEDMKRLHLDDEKSSNLGEMVRVGEGKYREDFQMDEGEDPNLLFQSYLDNVGVQIVRQMRSGERFLKIWSQTVEEIVSYVTVNFPNPPRRSSEDKSTQTTGRELKKETTSAFSQRESQPSKARMVAQVAPGPPALEWSATNEEDDLSVEAEIAHQIAESFSKKYKFPSRSSGIFLYNFEQLKMNLDDIVKEAKNVPGVTRLAHDGSKIPLRCVLGWVALANSKKFQLLVEADKLSKIMQDDLNRYTSC
B1: binds.
